Source: patent US20170007716A1 (ONCOMATRYX BIOPHARMA S L, published 2017)

Tests used:
[1] = target: T1, human FAP on HT1080 cells (HT1080-huFAP, stable transfectants) (human, UniProt Q12884 1-760); assay: cell-based or functional assay
T1 sequence: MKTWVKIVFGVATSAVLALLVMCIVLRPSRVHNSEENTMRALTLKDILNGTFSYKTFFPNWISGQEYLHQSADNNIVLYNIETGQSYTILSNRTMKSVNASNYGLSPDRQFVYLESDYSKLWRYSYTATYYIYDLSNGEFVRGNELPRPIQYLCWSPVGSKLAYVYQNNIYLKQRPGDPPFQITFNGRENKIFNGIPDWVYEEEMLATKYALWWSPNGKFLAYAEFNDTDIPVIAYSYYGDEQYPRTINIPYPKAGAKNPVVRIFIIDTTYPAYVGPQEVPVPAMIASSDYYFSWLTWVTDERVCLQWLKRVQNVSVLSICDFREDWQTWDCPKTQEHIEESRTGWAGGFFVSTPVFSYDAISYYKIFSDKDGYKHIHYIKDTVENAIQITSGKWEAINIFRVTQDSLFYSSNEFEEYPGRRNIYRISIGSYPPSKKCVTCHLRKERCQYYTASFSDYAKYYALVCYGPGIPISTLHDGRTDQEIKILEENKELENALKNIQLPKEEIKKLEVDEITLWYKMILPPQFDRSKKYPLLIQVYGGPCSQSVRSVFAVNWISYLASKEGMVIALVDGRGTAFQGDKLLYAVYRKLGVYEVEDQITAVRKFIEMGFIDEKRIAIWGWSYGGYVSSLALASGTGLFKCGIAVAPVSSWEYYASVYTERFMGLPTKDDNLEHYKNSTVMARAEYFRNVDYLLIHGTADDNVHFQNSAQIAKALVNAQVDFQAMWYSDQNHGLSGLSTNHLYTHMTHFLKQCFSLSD

[2] = target: T1, human FAP on HT1080 cells …; assay: cell-based or functional assay; remark: listed apart in the source
[3] = target: T2, recombinant human FAP (extracellular region aa 26-760; R&D systems) (human, UniProt Q12884 26-760); assay: ELISA, rhFAP
T2 construct: also called rhFAP; recombinant FAP
T2 sequence: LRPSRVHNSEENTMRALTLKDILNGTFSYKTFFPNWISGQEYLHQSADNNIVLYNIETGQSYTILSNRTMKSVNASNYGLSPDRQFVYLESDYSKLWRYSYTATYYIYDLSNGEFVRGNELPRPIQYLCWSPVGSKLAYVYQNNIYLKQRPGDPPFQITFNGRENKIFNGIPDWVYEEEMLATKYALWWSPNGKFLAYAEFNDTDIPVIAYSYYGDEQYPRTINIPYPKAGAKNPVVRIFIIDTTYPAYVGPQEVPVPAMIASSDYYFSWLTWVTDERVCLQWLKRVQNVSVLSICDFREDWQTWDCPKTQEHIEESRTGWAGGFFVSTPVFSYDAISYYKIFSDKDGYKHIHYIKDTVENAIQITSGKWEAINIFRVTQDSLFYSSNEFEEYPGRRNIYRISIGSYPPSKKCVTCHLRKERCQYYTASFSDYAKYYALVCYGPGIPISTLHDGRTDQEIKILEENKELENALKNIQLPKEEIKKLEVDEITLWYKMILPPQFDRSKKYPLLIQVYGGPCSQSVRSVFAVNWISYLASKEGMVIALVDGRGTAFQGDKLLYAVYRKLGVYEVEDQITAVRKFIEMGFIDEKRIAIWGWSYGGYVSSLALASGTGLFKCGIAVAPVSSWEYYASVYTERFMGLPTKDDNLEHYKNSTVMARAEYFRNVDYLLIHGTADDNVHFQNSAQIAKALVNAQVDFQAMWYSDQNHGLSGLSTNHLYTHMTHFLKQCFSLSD

[4] = target: T1, human FAP on HT1080 cells …; assay: FACS, HT1080-huFAP cells
[5] = target: T3, mouse FAP on HT1080 cells (HT1080-moFAP) (mouse, UniProt P97321 1-761); assay: FACS, HT1080-moFAP cells
T3 construct: Murine FAP on stably transfected HT1080 cells; also called murine FAP
T3 sequence: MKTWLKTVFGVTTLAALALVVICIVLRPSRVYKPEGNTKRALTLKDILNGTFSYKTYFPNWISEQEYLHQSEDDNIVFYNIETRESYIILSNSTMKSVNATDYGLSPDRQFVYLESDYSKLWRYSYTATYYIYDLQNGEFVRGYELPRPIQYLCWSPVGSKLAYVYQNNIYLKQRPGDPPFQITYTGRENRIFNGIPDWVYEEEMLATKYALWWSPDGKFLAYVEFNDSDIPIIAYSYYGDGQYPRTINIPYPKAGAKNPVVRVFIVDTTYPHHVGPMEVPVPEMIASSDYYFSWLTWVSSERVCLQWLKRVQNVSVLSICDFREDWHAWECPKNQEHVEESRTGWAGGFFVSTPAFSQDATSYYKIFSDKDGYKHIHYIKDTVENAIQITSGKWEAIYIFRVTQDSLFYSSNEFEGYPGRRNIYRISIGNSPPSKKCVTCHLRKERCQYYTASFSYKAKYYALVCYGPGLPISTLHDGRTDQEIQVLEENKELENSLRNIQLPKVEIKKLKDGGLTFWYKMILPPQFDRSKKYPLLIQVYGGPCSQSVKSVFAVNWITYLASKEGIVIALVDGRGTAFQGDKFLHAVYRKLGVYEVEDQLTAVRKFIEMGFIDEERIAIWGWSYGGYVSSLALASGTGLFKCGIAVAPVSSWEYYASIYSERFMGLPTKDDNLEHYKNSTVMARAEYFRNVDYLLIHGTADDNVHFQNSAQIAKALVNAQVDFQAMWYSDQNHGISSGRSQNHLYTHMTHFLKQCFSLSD

[6] = target: T2, recombinant human FAP (extracellular …); assay: ELISA, recombinant FAP coated
[7] = target: T2, recombinant human FAP (extracellular …); assay: QCM (Attana A100), rhFAP; KD1
[8] = target: T2, recombinant human FAP (extracellular …); assay: QCM (Attana A100), rhFAP; KD2
[9] = target: T1, human FAP on HT1080 cells …; assay: flow cytometry, HT1080-huFAP cells
[10] = target: T3, mouse FAP on HT1080 cells (HT1080-moFAP); assay: flow cytometry, HT1080-moFAP cells

B1: Anti-FAP hu36-IgG1-recNgA immunotoxin conjugate HPS131-001-1 (antibody)
heavy: QVQLVQSGAEVKKPGASVKVSCKASGYTFTENIIHWVRQAPGQGLEWMGWFHPGSGSIKYNEKFKDRVTMTADTSTSTVYMELSSLRSEDTAVYYCARHGGTGRGAMDYWGQGTLVTVSSASTKGPSVFPLAPSSKSTSGGTAALGCLVKDYFPEPVTVSWNSGALTSGVHTFPAVLQSSGLYSLSSVVTVPSSSLGTQTYICNVNHKPSNTKVDKKVEPKSCDKTHTCPPCPAPPVAGPSVFLFPPKPKDTLMISRTPEVTCVVVDVSHEDPEVKFNWYVDGVEVHNAKTKPREEQYNSTYRVVSVLTVLHQDWLNGKEYKCKVSNKGLPSSIEKTISKAKGQPREPQVYTLPPSRDELTKNQVSLTCLVKGFYPSDIAVEWESNGQPENNYKTTPPVLDSDGSFFLYSKLTVDKSRWQQGNVFSCSVMHEALHNHYTQKSLSLSPGK
light: DIQMTQSPSSLSASVGDRVTITCRASKSVSTSAYSYMHWYQQKPGKAPKLLIYLASNLESGVPSRFSGSGSGTDFTLTISSLQPEDFATYYCQHSRELPYTFGQGTKLEIKRTVAAPSVFIFPPSDEQLKSGTASVVCLLNNFYPREAKVQWKVDNALQSGNSQESVTEQDSKDSTYSLSSTLTLSKADYEKHKVYACEVTHQGLSSPVTKSFNRGEC
chain: MIDYPSVSFNLDGAKSATYRDFLSNLRKTVATGTYEVNGLPVLRRESEVQVKSRFVLVPLTNYNGNTVTLAVDVTNLYVVAFSGNANSYFFKDATEVQKSNLFVGTKQNTLSFTGNYDNLETAANTRRESIELGPSPLDGAITSLYHGDSVARSLLVVIQMVSEAARFRYIEQEVRRSLQQATSFTPNALMLSMENNWSSMSLEIQQAGNNVSPFFGTVQLLNYDHTHRLVDNFEELYKITGIAILLFRCSSPSND
modifications: single cysteine in a hindered disulphide bond to the SMPT-derivatised antibody; derivatised with SMPT on amino groups; disulphide link to recNgA
[1]
  cytotoxicity on HT1080-FAP cells (cell viability), IC50: 5000 nM

B2: ADC-558 (HPS-157-039-005), anti-FAP hu36:TAM558 ADC (antibody, V domains shown)
VH: QVQLVQSGAEVKKPGASVKVSCKASGYTFTENIIHWVRQAPGQGLEWMGWFHPGSGSIKYNEKFKDRVTMTADTSTSTVYMELSSLRSEDTAVYYCARHGGTGRGAMDYWGQGTLVTVSS
VL: DIQMTQSPSSLSASVGDRVTITCRASKSVSTSAYSYMHWYQQKPGKAPKLLIYLASNLESGVPSRFSGSGSGTDFTLTISSLQPEDFATYYCQHSRELPYTFGQGTKLEIKR
modifications: cytolysin-linker TAM558 on cysteine residues (not site-specific); cytolysin-linker TAM558 (vcPABA linker in R4 with 3 ethylene glycol spacer) on cysteine residues (not site-specific), DAR 3.92 for the whole antibody
[1]
  specificity ratio between FAP(+) and FAP(-) HT1080 cells (cytotoxic activity): 500
[2]
  IC50 in Proliferation Arrest Assay (nM), HT1080-FAP: 0.96 nM

B3: humanized anti-FAP IgG1 hu36 (hu36-IgG1) (antibody, V domains shown)
VH: QVQLVQSGAEVKKPGASVKVSCKASGYTFTENIIHWVRQAPGQGLEWMGWFHPGSGSIKYNEKFKDRVTMTADTSTSTVYMELSSLRSEDTAVYYCARHGGTGRGAMDYWGQGTLVTVSS
VL: DIQMTQSPSSLSASVGDRVTITCRASKSVSTSAYSYMHWYQQKPGKAPKLLIYLASNLESGVPSRFSGSGSGTDFTLTISSLQPEDFATYYCQHSRELPYTFGQGTKLEIKR
notes: Full-length humanized IgG1/kappa, gamma1* = deficient for ADCC and CDC; made in CHO cells; also called anti-hu/moFAP hu36; naked anti-FAP hu36-IgG1
[3]
  EC50: 3 nM
[4]
  EC50: 0.3 nM
[5]
  EC50: 0.2 nM
[6]
  EC50: ~5 nM
[7]
  Kd: 218 nM
[8]
  Kd: 0.4 nM
[9]
  EC50: 0.33 nM
[10]
  EC50: 0.25 nM
